Experimental data reported in the supplement of paper PMC11865577.

Key:
Experiment in all cases: pull-down binding Z-score (relative to library population); higher = stronger binding
[1] = test system: G-clamp-N3 (biotin conjugate); conditions: RNA library: Library-1 (pre-miRNA loops + repeats)
Outline: (§1)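 Binding is given as a Z-score against the library mean and standard deviation, calculated after removing the beads-only signal and averaging barcoded replicate probes without their highest and lowest values. Cy5- or Cy3-end-labelled RNA library (1 μg) was heat-folded in phosphate/NaCl/KCl buffer and incubated 60 min at 25 °C with streptavidin beads bearing 100 pmol of biotin-conjugated small molecule. After three washes, RNA eluted in hot SDS was hybridised to a DNA barcode microarray for 20 h at 55.5 °C.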

[2] = test system: TO-3-N3 (biotin conjugate); conditions: RNA library: Library-2
Outline: as §1

[3] = test system: TO-3-N3-2 (biotin conjugate); conditions: RNA library: Library-2
Outline: as §1

[4] = test system: TO-N3 (biotin conjugate); conditions: RNA library: Library-2
Outline: as §1

[5] = test system: TO-N3-2 (biotin conjugate); conditions: RNA library: Library-2
Outline: as §1

Sequence	pull-down binding Z-score [1]	pull-down binding Z-score [2]	pull-down binding Z-score [3]	pull-down binding Z-score [4]	pull-down binding Z-score [5]
GGCCCCAGGAAGAAGGGCCUGGUGGAGCC [hsa-mir-6743]	2.82	0.235	0.267	0.577	1.51
GAUCCGGGAACCCACAGCCCCGUUC [hsa-mir-6783]	0.0468	0.496	0.149	0.886	1.08
CCAGGUUCCAUGUGAUGCUGAA [hsa-mir-6806]	0.154	-0.162	0.299	0.316	0.575
UGAAUAUGUAAUAUAAGUGUAUUG [hsa-mir-450b]	0.397	0.214	0.32	0.261	-0.284
CCUGUCCUAUGACAAACAUGGCAGG [hsa-mir-3927]	-0.521	-0.564	-0.497	-0.547	-0.673
CCGGGCGCUGCUCUGACCCCUCGU [hsa-mir-187]	0.00395	0.166	0.116	0.875	1.39
GCGCGGGAAAGUUCGGGAACGCGCG [hsa-mir-4479]	0.488	0.386	0.246	0.854	1.72
UCAGAUAUUUAAGUUAACAGUAUUUGA [hsa-mir-580]	0.0815	-0.784	-0.347	-1.1	-1.5
AUAUUGACACUAUAACAAUAAUGUCAAUAU [hsa-mir-4795]	0.669	-0.438	-0.44	-0.874	-1.79
AGCUGUGAAAGUCCUAGCU [hsa-mir-1256]	0.661	0.994	0.221	2.17	3.94
GUUGGGCAUCCACAGUCUCCCACC [hsa-mir-1911]	-1.43	-0.0617	-0.322	0.206	0.612
GCUGAGCCCUUUGAUAAGGGGGAGGUU [hsa-mir-8080]	-0.454	0.21	-0.219	0.361	0.545
UUGGUGUGUAUUGCCUUGUCAA [hsa-mir-1179]	-0.723	-0.972	-0.217	-0.924	-0.0369
CUGUGUGAGGACUAGAGGCGG [hsa-mir-4523]	1.39	0.0476	0.44	0.511	1.05
UUCAGAGUCAAUAUAAUUUUCUAG [hsa-mir-29a]	0.0825	0.749	0.27	0.485	-0.467
CAGUCCUGAGAUGCAGGGACUG [hsa-mir-4799]	0.166	-0.626	-0.531	-0.644	-0.727
UAGGCCCACUGCUCAGUGGAGC [hsa-mir-7847]	0.533	-0.238	-0.0119	0.139	0.845
UUUCUCUUGUCUAAAAGAAAAGAAA [hsa-mir-518f]	-0.201	-0.761	-0.281	-0.8	-0.969
ACUACUGUACUUUACAGCUAGCAGU [hsa-mir-301a]	0.0373	-0.475	-0.244	0.303	1.09

Sequence	pull-down binding Z-score [1]	pull-down binding Z-score [2]	pull-down binding Z-score [3]	pull-down binding Z-score [4]	pull-down binding Z-score [5]
UUUAAGACACCCUGUACCUUAAA [hsa-mir-3121]	-1.57	-0.44	-0.305	-0.415	-0.346
AUUGGCUUGGAUUCUGCAAAGCCU [hsa-mir-7151]	0.697	-0.259	0.281	0.194	1.03
UGGAAGGAAUGGGAUCUACUUCCA [hsa-mir-3612]	0.981	0.389	0.46	0.285	-0.214
CCGAGUGAUCUCGGU [hsa-mir-8071-1_8071-2]	-1.48	-0.581	-0.324	-0.685	-0.0845
GUUUUACUAUGAUGAGGUGUGCCAUCCACCCCAUCAUAGUAAAC [hsa-mir-606]	-0.172	-0.262	-0.139	-0.422	-0.698
CCUGCAGCCCCCAGGUGGGGGG [hsa-mir-4271]	0.67	0.75	-0.105	0.659	0.398
CGUGCAAGUUUAAGUUUUUGCACG [hsa-mir-4445]	0.55	0.314	-0.0878	0.282	-0.688
UGAGGUUUACUAUGGAACCUCA [hsa-mir-4465]	0.714	-0.566	-0.526	-0.958	-1.53
AGAACAGAUAUAUCCACAGUACACUUGGCUGUUCU [hsa-mir-4753]	0.593	-0.759	-0.354	-0.943	-0.635
CAUACAUUUUGAAUAUGUAUG [hsa-mir-299]	-0.304	0.734	-0.504	0.336	-1.29
GUUUGCAAGGGGUGUUUCUGUCCAUGGUCAGGC [hsa-mir-4283-1_4283-2]	1.19	0.578	0.154	0.778	0.725
UGCUCAGUGGAGUUAUUUUGAGCA [hsa-mir-4495]	1.2	-1.01	-0.621	-1.42	-1.2
AAUUUUGAUGAGUAUCAUAGGAGAAAAAUU [hsa-mir-363]	1.49	-0.302	0.27	-0.184	0.542
CAGAUACUUUUUAAAAUUUGUUUGAGUUGAGGCAGAUUAAAUAUCUG [hsa-mir-4742]	0.164	-0.76	0.104	-0.82	-0.673
CUUUGUCAUUAAAACCAAUAACAAAA [hsa-mir-548ap]	-0.92	0.331	0.223	0.0976	-0.638
CCAAAUCCUUUUCUGAUUUGG [hsa-mir-4520-2]	-0.824	-0.645	-0.574	-1.03	-1.69
CUUUUAUAUCAAGGCACAUAAAAG [hsa-mir-3910-1]	-1.7	-0.493	-0.271	-0.626	-1.17
UUGGUCUUUCCCCUGUGGUCCCAA [hsa-mir-2909]	-0.499	-0.158	0.152	-0.276	0.207
